Key:
[1] = target: E1o (S. scrofa full-length E1o, GST tag cut off) (S. scrofa); experiment: SPR
[2] = target: the molecule itself; experiment: cryo-electron tomography with subtomogram averaging

E3 (S. scrofa full-length E3, GST tag cut off) (from UniProt P09623 36-509) (natural protein)
Kd [1]: 1840 nM

B1: E3 subunit (dihydrolipoyl dehydrogenase) of native 2-oxoglutarate dehydrogenase complex from Sus scrofa heart (natural protein)
chain: ADQPIDADVTVIGSGPGGYVAAIKAAQLGFKTVCIEKNETLGGTCLNVGCIPSKALLNNSHYYHMAHGKDFASRGIEMSEVRLNLEKMMEQKSNAVKALTGGIAHLFKQNKVVRVNGYGKITGKNQVTATKADGSTEVINTKNILIATGSEVTPFPGITIDEDTVVSSTGALSLKKVPEKMVVIGAGVIGVELGSVWQRLGADVTAVELLGHVGGIGIDMEVSKNFQRILQKQGFKFKLNTKVIGATKKSDGNIDVSIEAASGGKAEVITCDVLLVCIGRRPFTQNLGLEELGIELDPRGRIPVNTRFQTKIPNIYAIGDVVAGPMLAHKAEDEGIICVEGMAGGAVHIDYNCVPSVIYTHPEVAWVGKSEEQLKEEGIEYKVGKFPFAANSRAKTNADTDGMVKILGQKSTDRVLGAHIIGPGAGEMINEAALALEYGASCEDIARVCHAHPTLSEAFREANLAASFGKAINF
binding result [2]: binds
